Results published in paper PMC3448830.

Legend:
Conditions in all cases: other: substrate, Hanes-Woolf plots, pH 8.5, room temperature, 16 h
NCc1c[nH]c(C(=O)O)c1 = test: Substrate activity for GABA-AT; format: biochemical, pig
NCc1ccc(C(=O)O)[nH]1 = test: Substrate activity for GABA-AT; format: biochemical, pig
NCc1ccc(C(=O)O)o1 = test: Substrate activity for GABA-AT; format: biochemical, pig
NCc1ccc(C(=O)O)s1 = test: Substrate activity for GABA-AT; format: biochemical, pig
NCc1coc(C(=O)O)c1 = test: Substrate activity for GABA-AT; format: biochemical, pig
NCc1cocc1C(=O)O = test: Substrate activity for GABA-AT; format: biochemical, pig
NCc1csc(C(=O)O)c1 = test: Substrate activity for GABA-AT; format: biochemical, pig
NCCCC(=O)O = test: purified protein, by the assay type

## GABA-AT (Sus scrofa)
NCc1c[nH]c(C(=O)O)c1
  Km: 1400 ± 300 µM
  kcat: 5.67e-05 ± 5e-06 s⁻¹
  kcat/Km: 0.04 M⁻¹ s⁻¹
NCc1ccc(C(=O)O)[nH]1
  Km: 9500 ± 300 µM
  kcat: 2.5e-05 ± 3.33e-06 s⁻¹
  kcat/Km: 0.00267 M⁻¹ s⁻¹
NCc1ccc(C(=O)O)o1
  Km: 2100 ± 100 µM
  kcat: 0.000567 ± 6.67e-05 s⁻¹
  kcat/Km: 0.267 M⁻¹ s⁻¹
NCc1ccc(C(=O)O)s1
  Km: 6300 ± 200 µM
  kcat: 0.000167 ± 5e-05 s⁻¹
  kcat/Km: 0.0267 M⁻¹ s⁻¹
NCc1coc(C(=O)O)c1
  Km: 310 ± 70 µM
  kcat: 3.83e-05 ± 1.67e-06 s⁻¹
  kcat/Km: 0.123 M⁻¹ s⁻¹
NCc1cocc1C(=O)O
  Km: 2800 ± 500 µM
  kcat: 1.38e-05 ± 8.33e-07 s⁻¹
  kcat/Km: 0.005 M⁻¹ s⁻¹
NCc1csc(C(=O)O)c1
  Km: 1700 ± 300 µM
NCCCC(=O)O
  Km: 1300 ± 300 µM
  kcat: 0.817 s⁻¹
  kcat/Km: 643 M⁻¹ s⁻¹
